What was measured:
bem1_yeast BEM1 [1] = biological target: bem1_yeast BEM1 (UniProt P29366)
bem1_yeast BEM1 [2] = biological target: bem1_yeast BEM1 (UniProt P29366); remark: listed apart in the source

bem1_yeast BEM1, sequence (P29366 whole entry): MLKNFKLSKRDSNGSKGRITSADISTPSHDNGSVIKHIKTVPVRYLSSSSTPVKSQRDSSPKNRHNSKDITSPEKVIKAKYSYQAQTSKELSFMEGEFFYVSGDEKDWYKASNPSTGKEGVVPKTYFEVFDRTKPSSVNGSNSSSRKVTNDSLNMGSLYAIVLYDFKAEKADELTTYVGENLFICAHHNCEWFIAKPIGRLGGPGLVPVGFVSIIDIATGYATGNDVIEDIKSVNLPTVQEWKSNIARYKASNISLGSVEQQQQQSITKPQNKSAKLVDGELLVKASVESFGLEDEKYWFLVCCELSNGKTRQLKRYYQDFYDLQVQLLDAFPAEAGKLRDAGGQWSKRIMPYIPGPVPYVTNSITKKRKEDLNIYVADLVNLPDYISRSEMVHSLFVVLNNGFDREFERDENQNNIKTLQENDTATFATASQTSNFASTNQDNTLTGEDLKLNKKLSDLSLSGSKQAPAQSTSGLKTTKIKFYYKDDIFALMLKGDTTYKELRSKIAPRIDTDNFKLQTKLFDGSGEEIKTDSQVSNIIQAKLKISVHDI
Cell division control protein 42 (Saccharomyces cerevisiae), P19073 Q61L, sequence (P19073 whole entry Q61L): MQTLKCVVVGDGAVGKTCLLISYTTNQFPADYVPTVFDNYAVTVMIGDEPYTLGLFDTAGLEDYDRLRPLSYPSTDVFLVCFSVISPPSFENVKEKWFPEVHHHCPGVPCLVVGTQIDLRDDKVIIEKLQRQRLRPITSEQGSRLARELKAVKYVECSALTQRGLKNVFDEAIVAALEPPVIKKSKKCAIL
Cell division control protein 42 (Saccharomyces cerevisiae), P19073 D57Y, sequence (P19073 whole entry D57Y): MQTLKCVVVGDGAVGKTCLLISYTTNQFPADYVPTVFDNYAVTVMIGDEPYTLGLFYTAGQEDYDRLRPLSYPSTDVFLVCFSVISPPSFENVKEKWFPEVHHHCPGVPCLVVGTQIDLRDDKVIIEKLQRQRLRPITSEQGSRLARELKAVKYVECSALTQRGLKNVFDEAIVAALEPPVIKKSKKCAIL

Row | Substance | effect of a mutation on the interaction (bem1_yeast BEM1 [1]) | effect of a mutation on the interaction (bem1_yeast BEM1 [2])
1 | Cell division control protein 42 (Saccharomyces cerevisiae), P19073 D57Y | disrupting interaction strength | 
2 | Cell division control protein 42 (Saccharomyces cerevisiae), P19073 Q61L |  | with no effect

Reference: IntAct's records for PubMed 11113154
